Earlier results on 1 substance are cited in publication PMC2774623.

By pKd is commonly meant −log10 of the Kd, conventionally taken in molar units.

The data set concerns the target CK2 alpha (Homo sapiens) (UniProt P68400). As to the kind of experiment: SPR. On the technique in general: In SPR one partner is held on a chip, and binding of the other changes the refractive index at the surface.

pKd: −log10 of the molar value.

CK2 alpha (Homo sapiens), sequence (P68400 whole entry): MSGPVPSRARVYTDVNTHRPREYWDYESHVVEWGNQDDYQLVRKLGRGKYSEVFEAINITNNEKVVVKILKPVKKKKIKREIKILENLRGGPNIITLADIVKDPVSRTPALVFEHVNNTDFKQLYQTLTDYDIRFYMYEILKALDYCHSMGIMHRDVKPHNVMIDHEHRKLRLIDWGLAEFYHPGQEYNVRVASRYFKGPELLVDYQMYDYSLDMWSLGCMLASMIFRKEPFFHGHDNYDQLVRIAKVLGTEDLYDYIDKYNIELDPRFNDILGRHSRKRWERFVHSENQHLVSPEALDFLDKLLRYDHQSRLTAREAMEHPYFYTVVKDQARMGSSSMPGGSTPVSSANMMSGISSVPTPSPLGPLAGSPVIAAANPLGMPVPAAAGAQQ
CK2 beta, sequence (P67870 2-215): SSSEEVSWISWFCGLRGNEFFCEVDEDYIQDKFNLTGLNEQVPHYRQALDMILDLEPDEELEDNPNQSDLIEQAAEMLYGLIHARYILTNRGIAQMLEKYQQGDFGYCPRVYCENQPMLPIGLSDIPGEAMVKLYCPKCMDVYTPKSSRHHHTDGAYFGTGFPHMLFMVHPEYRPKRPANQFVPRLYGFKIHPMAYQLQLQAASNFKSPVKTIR

With CK2 beta (from UniProt P67870), the pKd is 7.39.
